The record followed here is patent US20210380702A1.

The test has as its target recombinant human PD-L1 (amino acids 19-239 of NP_054862.1) expressed with a C-terminal human IgG1 Fc tag (human). In words: SPR (Biacore 3000): 100 nM hPD-L1-hFc + 500 nM mAb on captured hPD-1-mFc, 25C.

Chain of recombinant human PD-L1 (amino acids 19-239 of NP_054862.1) expressed with a C-terminal human IgG1 Fc tag (human) (chain, as listed by the source limits assumed): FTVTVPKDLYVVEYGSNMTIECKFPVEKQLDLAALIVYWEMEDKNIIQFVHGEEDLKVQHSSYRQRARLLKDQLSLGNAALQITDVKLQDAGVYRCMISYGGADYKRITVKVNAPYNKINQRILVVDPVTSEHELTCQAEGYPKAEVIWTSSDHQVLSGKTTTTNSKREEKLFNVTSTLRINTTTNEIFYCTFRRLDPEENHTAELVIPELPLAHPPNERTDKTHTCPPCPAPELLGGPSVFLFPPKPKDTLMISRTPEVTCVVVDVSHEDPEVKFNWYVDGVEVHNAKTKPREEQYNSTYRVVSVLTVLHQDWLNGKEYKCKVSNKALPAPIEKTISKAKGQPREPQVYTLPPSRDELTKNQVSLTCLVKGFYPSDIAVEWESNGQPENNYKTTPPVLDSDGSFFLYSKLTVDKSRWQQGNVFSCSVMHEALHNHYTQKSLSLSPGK

For the substance “Isotype control antibody (Table 13, Biacore assay of human Fc antibodies)”, the % Blocking was determined as 0%.
